The values that follow come from IntAct's records for PubMed 20691684.

B1: NSFL1 cofactor p47 (Rattus norvegicus (Rat)), O35987 (parent)
chain: MAEERQDALREFVAVTGAEEDRARFFLESAGWDLQIALASFYEDGGDEDIVTISQATPSSVSRGTAPSDNRVTSFRDLIHDQDEEEEEEEGQRFYAGGSERSGQQIVGPPRKKSPNELVDDLFKGAKEHGAVAVERVTKSPGETSKPRPFAGGGYRLGAAPEEESAYVAGERRRHSGQDVHVVLKLWKTGFSLDNGDLRSYQDPSNAQFLESIRRGEVPAELRRLAHGGQVNLDMEDHRDEDFVKPKGAFKAFTGEGQKLGSTAPQVLNTSSPAQQAENEAKASSSILINEAEPTTNIQIRLADGGRLVQKFNHSHRISDIRLFIVDARPAMAATSFVLMTTFPNKELADENQTLKEANLLNAVIVQRLT
B2: UBX domain-containing protein 2B (Mus musculus), Q0KL01 (parent)
chain: MAEGGRAEPEEQERGSSRPRPPSARDLQLALAELYEDEMKCKSSKPDRSTPATCRSPRTPPHRLYSGDHKYDGLHIVQPPTGKIVNELFKEAREHGAVPLNEATRSSREDKTKSFTGGGYRLGNSFYKRSEYIYGENQLQDVQVLLKLWRNGFSLDDGELRPYSDPTNAQFLESVKRGETPLELQRLVHGAQVNLDMEDHQDQEYIKPRLRFKAFSGEGQKLGSLTPEIVSTPSSPEEEDKSILNAAVLIDDSMPTTKIQIRLADGSRLVQRFNSTHRILDVRDFIVRSRPEFATTDFILVTSFPSKELTDETVTLQEADILNTVILQQLK

Variants of B1 are the subject of the first test. Conditions: with tera_rat Vcp.
Target sequence in this assay (P46462 whole entry): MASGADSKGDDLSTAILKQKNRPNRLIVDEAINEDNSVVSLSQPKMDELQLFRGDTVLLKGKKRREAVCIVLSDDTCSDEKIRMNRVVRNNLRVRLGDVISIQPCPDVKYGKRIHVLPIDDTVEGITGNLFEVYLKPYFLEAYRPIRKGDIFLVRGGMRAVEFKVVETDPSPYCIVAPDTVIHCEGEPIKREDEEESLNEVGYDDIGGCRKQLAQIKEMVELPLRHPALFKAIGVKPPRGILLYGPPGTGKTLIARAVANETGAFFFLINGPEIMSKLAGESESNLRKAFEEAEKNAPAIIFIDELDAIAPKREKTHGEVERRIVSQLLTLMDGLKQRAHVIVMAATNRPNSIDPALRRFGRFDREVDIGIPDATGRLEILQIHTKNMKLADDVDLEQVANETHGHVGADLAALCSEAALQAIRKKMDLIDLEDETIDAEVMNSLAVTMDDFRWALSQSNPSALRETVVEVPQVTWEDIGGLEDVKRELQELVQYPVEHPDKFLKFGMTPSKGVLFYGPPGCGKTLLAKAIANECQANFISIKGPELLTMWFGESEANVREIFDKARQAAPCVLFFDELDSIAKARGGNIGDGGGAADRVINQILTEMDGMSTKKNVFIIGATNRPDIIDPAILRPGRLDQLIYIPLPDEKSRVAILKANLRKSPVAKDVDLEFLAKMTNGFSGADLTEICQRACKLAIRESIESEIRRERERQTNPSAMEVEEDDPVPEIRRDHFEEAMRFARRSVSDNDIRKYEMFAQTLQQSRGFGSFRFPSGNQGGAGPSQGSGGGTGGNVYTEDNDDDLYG
In the case of F253S, the “effect of a mutation on the interaction” value is on record as “disrupting interaction”.

A further test covers variants of B1. Conditions: with tera_mouse Vcp.
In the case of F253S, the “effect of a mutation on the interaction” value is listed as “disrupting interaction”.

Variants of B2 are the subject of the next test. Conditions: with tera_rat Vcp.
Target sequence in this assay (P46462 whole entry): as above
F215S: the “effect of a mutation on the interaction” value was “disrupting interaction”.
